Test results: the MegaScale stability set (Tsuboyama et al. 2023)

B1: 2K2A (parent)
chain: ELREAFRLYDKEGNGYISTDVMREILAELDETLSSEDLDAMIDEIDADGSGTVDFEEFMGVMT

Variants of: B1
Assay: folding stability dG (cDNA display proteolysis); higher = more stable
Conditions: PBS, room temperature

Variant | folding stability dG
ELREAFRLYDKEGNGYISTDVMREILAELDETLSSEDLDAMIDEIDADGSGTVDFEEYMGVMT [F58Y] | 6.7 kJ/mol
ELREAFRLYDKEGNGYISTDVMREILAELDETLSSEDLDAMIDEIDADGSGTVDREEFMGVMT [F55R] | 1.57 kJ/mol
ELREAFRLYDKEGNGYISTDVMREILAELDETLSSEDLDAMIDEIDADGSGTVDTEEFMGVMT [F55T] | 0.619 kJ/mol
ELREAFRLYDKEGNGYISTDVMREILAELDETLSSEDLDAMIDEIDADGSGTVDDEEFMGVMT [F55D] | -3.63 kJ/mol
ELREAFRLYDKEGNGYISTDVMREILAELDETLSSEDLDAMIDEIDADGSGTVDQEEFMGVMT [F55Q] | 2.42 kJ/mol
ELREAFRLYDKEGNGYISTDVMREILAELDETLSSEDLDAMIDEIDADGSGTVDWEEFMGVMT [F55W] | 7.33 kJ/mol
ELREAFRLYDKEGNGYISTDVMREILAELDETLSSEDLDAMIDEIDADGSGTVDPEEFMGVMT [F55P] | -0.602 kJ/mol
ELREAFRLYDKEGNGYISTDVMREILAELDETLSSEDLDAMIDEIDADGSGTVDIEEFMGVMT [F55I] | 6.15 kJ/mol
ELREAFRLYDKEGNGYISTDVMREILAELDETLSSEDLDAMIDEIDADGSGTVDGEEFMGVMT [F55G] | -1.1 kJ/mol
ELREAFRLYDKEGNGYISTDVMREILAELDETLSSEDLDAMIDEIDADGSGTVDNEEFMGVMT [F55N] | -2.3 kJ/mol
ELREAFRLYDKEGNGYISTDVMREILAELDETLSSEDLDAMIDEIDADGSGTVDYEEFMGVMT [F55Y] | 7.87 kJ/mol
ELREAFRLYDKEGNGYISTDVMREILAELDETLSSEDLDAMIDEIDADGSGTVDKEEFMGVMT [F55K] | 0.552 kJ/mol
ELREAFRLYDKEGNGYISTDVMREILAELDETLSSEDLDAMIDEIDADGSGTVDAEEFMGVMT [F55A] | 2.87 kJ/mol
ELREAFRLYDKEGNGYISTDVMREILAELDETLSSEDLDAMIDEIDADGSGTVDCEEFMGVMT [F55C] | 2.86 kJ/mol
ELREAFRLYDKEGNGYISTDVMREILAELDETLSSEDLDAMIDEIDADGSGTVDMEEFMGVMT [F55M] | 5.46 kJ/mol
ELREAFRLYDKEGNGYISTDVMREILAELDETLSSEDLDAMIDEIDADGSGTVDVEEFMGVMT [F55V] | 5.51 kJ/mol
ELREAFRLYDKEGNGYISTDVMREILAELDETLSSEDLDAMIDEIDADGSGTVDLEEFMGVMT [F55L] | 6.94 kJ/mol
ELREAFRLYDKEGNGYISTDVMREILAELDETLSSEDLDAMIDEIDADGSGTVDEEEFMGVMT [F55E] | 5.55 kJ/mol
ELREAFRLYDKEGNGYISTDVMREILAELDETLSSEDLDAMIDEIDADGSGTVDSEEFMGVMT [F55S] | 0.674 kJ/mol
ELREAFRLYDKEGNGYISTDVMREILAELDETLSSEDLDAMIDEIDADGSGTVDHEEFMGVMT [F55H] | 1 kJ/mol
ELREAFRLYDKEGNGYISTDVMREILAELDETLSSEDLDAMIDEIDADGSGTVVFEEFMGVMT [D54V] | 5.78 kJ/mol
ELREAFRLYDKEGNGYISTDVMREILAELDETLSSEDLDAMIDEIDADGSGTVTFEEFMGVMT [D54T] | 9.87 kJ/mol

Variant | folding stability dG
ELREAFRLYDKEGNGYISTDVMREILAELDETLSSEDLDAMIDEIDADGSGTVYFEEFMGVMT [D54Y] | 8.37 kJ/mol
ELREAFRLYDKEGNGYISTDVMREILAELDETLSSEDLDAMIDEIDADGSGTVWFEEFMGVMT [D54W] | 7.2 kJ/mol
ELREAFRLYDKEGNGYISTDVMREILAELDETLSSEDLDAMIDEIDADGSGTVDFETFMGVMT [E57T] | 10.3 kJ/mol
ELREAFRLYDKEGNGYISTDVMREILAELDETLSSEDLDAMIDEIDADGSGTVDFEVFMGVMT [E57V] | 9.46 kJ/mol
ELREAFRLYDKEGNGYISTDVMREILAELDETLSSEDLDAMIDEIDADGSGTVDFELFMGVMT [E57L] | 7.95 kJ/mol
ELREAFRLYDKEGNGYISTDVMREILAELDETLSSEDLDAMIDEIDADGSGTVDFEPFMGVMT [E57P] | 0.444 kJ/mol
ELREAFRLYDKEGNGYISTDVMREILAELDETLSSEDLDAMIDEIDADGSGTVDFEMFMGVMT [E57M] | 9.9 kJ/mol
ELREAFRLYDKEGNGYISTDVMREILAELDETLSSEDLDAMIDEIDADGSGTVDFESFMGVMT [E57S] | 10 kJ/mol
ELREAFRLYDKEGNGYISTDVMREILAELDETLSSEDLDAMIDEIDADGSGTVDFEIFMGVMT [E57I] | 8.23 kJ/mol
ELREAFRLYDKEGNGYISTDVMREILAELDETLSSEDLDAMIDEIDADGSGTVDFEDFMGVMT [E57D] | 7.18 kJ/mol
ELREAFRLYDKEGNGYISTDVMREILAELDETLSSEDLDAMIDEIDADGSGTVDFEFFMGVMT [E57F] | 6.16 kJ/mol
ELREAFRLYDKEGNGYISTDVMREILAELDETLSSEDLDAMIDEIDADGSGTVDFEAFMGVMT [E57A] | 10.3 kJ/mol
ELREAFRLYDKEGNGYISTDVMREILAELDETLSSEDLDAMIDEIDADGSGTVDFEGFMGVMT [E57G] | 9.76 kJ/mol
ELREAFRLYDKEGNGYISTDVMREILAELDETLSSEDLDAMIDEIDADGSGTVDFEWFMGVMT [E57W] | 6.5 kJ/mol
ELREAFRLYDKEGNGYISTDVMREILAELDETLSSEDLDAMIDEIDADGSGTVDFENFMGVMT [E57N] | 8.38 kJ/mol
ELREAFRLYDKEGNGYISTDVMREILAELDETLSSEDLDAMIDEIDADGSGTVDFEQFMGVMT [E57Q] | 10.4 kJ/mol
ELREAFRLYDKEGNGYISTDVMREILAELDETLSSEDLDAMIDEIDADGSGTVDFECFMGVMT [E57C] | 8.39 kJ/mol
ELREAFRLYDKEGNGYISTDVMREILAELDETLSSEDLDAMIDEIDADGSGTVDFERFMGVMT [E57R] | 10.4 kJ/mol
ELREAFRLYDKEGNGYISTDVMREILAELDETLSSEDLDAMIDEIDADGSGTVDFEKFMGVMT [E57K] | 10.8 kJ/mol
ELREAFRLYDKEGNGYISTDVMREILAELDETLSSEDLDAMIDEIDADGSGTVDFEHFMGVMT [E57H] | 9.13 kJ/mol
ELREAFRLYDKEGNGYISTDVMREILAELDETLSSEDLDAMIDEIDADGSGTVDFEYFMGVMT [E57Y] | 6.61 kJ/mol
